Results from patent US20240029824A1 (University of Washington, published 2024).
Residue numbers refer to the chain shown, from its start.

T1: DHT05 chain C (SEQ ID NO: 98)
T1 chain: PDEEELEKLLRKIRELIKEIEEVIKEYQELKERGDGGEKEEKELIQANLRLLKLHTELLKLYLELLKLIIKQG

T2: DHT03_3arm_A21/B21/C62 chain C
T2 chain: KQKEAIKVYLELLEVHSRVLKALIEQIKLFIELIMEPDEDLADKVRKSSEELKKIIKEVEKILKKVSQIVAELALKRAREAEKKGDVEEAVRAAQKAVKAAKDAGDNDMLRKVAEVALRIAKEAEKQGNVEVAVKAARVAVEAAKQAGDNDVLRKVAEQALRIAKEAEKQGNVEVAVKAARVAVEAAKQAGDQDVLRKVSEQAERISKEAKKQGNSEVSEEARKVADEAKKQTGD

T3: DHT03_3arm_A21/B21/C59 chain C
T3 chain: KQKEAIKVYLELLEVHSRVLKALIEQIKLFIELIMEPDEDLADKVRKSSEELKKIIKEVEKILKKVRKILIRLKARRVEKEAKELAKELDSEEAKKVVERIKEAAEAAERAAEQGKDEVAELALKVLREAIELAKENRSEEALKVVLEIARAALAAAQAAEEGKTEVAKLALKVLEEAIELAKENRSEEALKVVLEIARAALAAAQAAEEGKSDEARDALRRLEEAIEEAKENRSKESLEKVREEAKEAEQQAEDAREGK

T4: DHT03_3arm_A21/B21/C82 chain C
T4 construct: also called chain C DHR82 fusion; chain C of C3-DHT03-01-DHR82 and C4-DHT03-01-DHR82
T4 chain: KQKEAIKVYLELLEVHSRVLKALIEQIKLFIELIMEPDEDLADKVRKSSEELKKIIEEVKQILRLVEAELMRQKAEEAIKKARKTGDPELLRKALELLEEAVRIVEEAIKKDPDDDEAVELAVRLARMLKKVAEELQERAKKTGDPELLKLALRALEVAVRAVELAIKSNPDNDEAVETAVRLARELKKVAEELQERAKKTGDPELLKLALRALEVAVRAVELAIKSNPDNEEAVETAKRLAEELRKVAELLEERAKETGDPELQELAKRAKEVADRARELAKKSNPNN

T5: DHT03_3arm_A21/B21/C53 chain C
T5 chain: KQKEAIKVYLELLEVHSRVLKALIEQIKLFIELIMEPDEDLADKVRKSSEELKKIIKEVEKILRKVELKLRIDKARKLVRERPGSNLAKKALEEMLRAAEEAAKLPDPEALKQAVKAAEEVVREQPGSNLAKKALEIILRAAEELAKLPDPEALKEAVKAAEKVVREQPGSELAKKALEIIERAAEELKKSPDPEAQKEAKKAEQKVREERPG

T6: DHT05 chain C (SEQ ID NO: 95)
T6 chain: T1 chain with K42E, E57R

T7: DHT01-4arm-01 chain C
T7 construct: also called DHT01-4arm-02 chain C; C2-DHT01-01 chain B
T7 chain: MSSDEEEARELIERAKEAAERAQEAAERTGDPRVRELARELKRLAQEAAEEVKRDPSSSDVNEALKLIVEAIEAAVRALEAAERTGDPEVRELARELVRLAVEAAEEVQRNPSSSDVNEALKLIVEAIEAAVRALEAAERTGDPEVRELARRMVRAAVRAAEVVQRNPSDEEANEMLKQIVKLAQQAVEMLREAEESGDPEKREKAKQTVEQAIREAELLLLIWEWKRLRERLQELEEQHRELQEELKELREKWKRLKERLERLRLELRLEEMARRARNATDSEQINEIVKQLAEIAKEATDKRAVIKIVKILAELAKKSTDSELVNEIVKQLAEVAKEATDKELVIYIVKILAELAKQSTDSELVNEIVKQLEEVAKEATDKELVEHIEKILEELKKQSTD

T8: DHT05 chain C (SEQ ID NO: 89)
T8 chain: T1 chain with E29K, E57R

T9: DHT05_3arm_A62/B71/C62 chain C
T9 chain: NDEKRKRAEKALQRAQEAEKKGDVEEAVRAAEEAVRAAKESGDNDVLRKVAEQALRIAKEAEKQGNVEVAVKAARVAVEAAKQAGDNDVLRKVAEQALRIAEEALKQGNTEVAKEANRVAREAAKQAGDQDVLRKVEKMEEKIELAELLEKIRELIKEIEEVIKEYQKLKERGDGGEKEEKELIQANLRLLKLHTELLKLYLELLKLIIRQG

T10: DHT05_3arm_A62/B71/C62 chain B
T10 chain: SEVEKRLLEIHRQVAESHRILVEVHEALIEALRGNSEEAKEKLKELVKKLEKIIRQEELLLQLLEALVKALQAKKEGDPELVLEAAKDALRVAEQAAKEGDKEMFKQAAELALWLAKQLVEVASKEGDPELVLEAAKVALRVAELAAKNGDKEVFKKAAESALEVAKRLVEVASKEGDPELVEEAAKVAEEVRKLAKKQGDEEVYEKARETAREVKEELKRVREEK

T11: DHT01 chain B
T11 chain: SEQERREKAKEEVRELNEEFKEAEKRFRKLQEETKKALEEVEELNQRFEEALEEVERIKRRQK

T12: DHT01 chain C
T12 chain: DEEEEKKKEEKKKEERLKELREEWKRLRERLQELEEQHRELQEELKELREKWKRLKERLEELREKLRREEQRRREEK

B1: DHT05_2arm_A62/B14(2)-LHD101B14/C chain B (designed binder)
chain: SETEKRLLEIHRRVAESHRILVEVHEALIEALRGNSEEAKEKLKELVKKLEKIIREEEKLTVELAAKVAKSADDSEKVNEIVKTLAEIAKEATDKEQVIRIVKILAELAKQSTDSELVNEIVKQLAEVAKEATDKELVIYIVDILLKLAEQADDDELVEEIRKQLEEVAKEATDKELVEIIKAVIVLLVIISVVARMGVTMEIHKSGREVKVVIKGLHESQQEQLLEAVLRAAEEAGVRVRIRFKGDTVTIVVRG
B2: DHT03_3arm chain B (B21, SEQ ID NO: 73) (designed binder)
chain: SEKEKVEELAQRIREQLPDTELAREAQELADEARKSDDSEALKVVYLALRIVQQLPDTELAREALELAKEAVKSTDSEQLEVVRLALEIVQLAPDTRLARAALKLAKEAVKSTDQEELKKVKAILRVASEVLKLEEEAKKSQEEVERLKQEVEKASKAGLDHEGDSRIFKKIHDVVTKQIKVILRLIAVYAELVAIIG
notes: separately expressed with an N- or C-terminal 6xHis-tag
B3: DHT05_2arm_A62/B14/C chain B (designed binder)
chain: SEVEKRLLEIHREVAESHRILVEVHEALIEALRGNSEEAKEKLKELVKKLEKIIKEEEELLKKLEKIVVQALAKAAKQATDSRQVNEIVKQLAEIAKEATDKRLVIEIVKILAELAKQSTDSELVNEIVKQLAEVAKEATDKELVIYIVKILAELAKQSTDSELVNEIVKQLEEVAKEATDKELVEHIEKILEELKKQSTD
B4: DHT01-4arm-02 chain B (designed binder)
chain: MSSDEEEARELIERAKEAAERAQEAAERTGDPRVRELARELKRLAQEAAEEVKRDPSSSDVNEALKLIVEAIEAAVRALEAAERTGDPEVRELARELVRLAVEAAEEVQRNPSSSDVNRALKLIVRAIEAAVQLLEHAEKSGDPEVRELARELVRRLVEAAEEVQRNPSDEQKNTQLRRLIAKAEVWLLNEEFKEAEKRFRKLQEETKKALEEVEELNQRFEEALEEVERIKRRQK
notes: Strep-tag II was added to the N-terminus of chain B of DHT01 arms; also called C2-DHT01-04 chain B
B5: DHT05 chain B (SEQ ID NO: 88) (designed binder)
chain: SEVEKRLLEIHRRVAESHRILVEVHEALIEALRGNSEEAKEKLKELVKELEKIIKEEEELLKELEKIVEEAS
B6: DHT05_3arm_A62/B71/C62 chain A (designed binder)
chain: NDEKRKRAEKALQRAQEAEKKGDVEEAVRAAQEAVRAAKESGDNDVLRKVAEQALRIAEEAEKQGNVEVAVKAARVAVEAAKQAGDNDVLRKVAEQALRIAEEAEKQGNVKVAADAVEVAVEAATQAGDQDVLRKASEQAKKVAKEAKKKGDHKVAVKATTLAVKAEFAAIQEEIKKLEEEAKKAEKGNGKEEIKELLLELSELLARSLQLLAQQIEAIAKLIRG
B7: DHT01 chain A (designed binder)
chain: DEEEKLRESLEEQKKRVKEIEREHEEIREALKRLQESVKRQEEALRQLG
notes: one chain of the co-expressed design carried a 6xHis-tag and a second a Strep-tag II
B8: DHT05 chain A (designed binder)
chain: PEEKKEIKRTTEEVKEEFRKIQEEIKKLEEEAKKAEKGNGKEEIKELLLRLSELLARSLQLLAQQIEAIAKLIRG

Experiments:
[1] = molecular target: T1, DHT05 chain C (SEQ ID NO: 98); assay: co-expression, SEC, SAXS; chains of one ABC heterotrimer
[2] = molecular target: T2, DHT03_3arm_A21/B21/C62 chain C; assay: individually purified chains mixed 1:1:1, heat annealed, SEC
Source text: (§1) To test this idea, an equimolar amount of individually purified A, B, and C of DHT03_2arm_A21/B21/C were mixed together and run through an annealing protocol (see Methods) to allow these interfaces to reassemble in the presence of all components. A monodisperse SEC peak was observed belonging to the ABC heterotrimer state as confirmed by overlap with its SEC co-expressed tricistronic version (FIG. 3d). To explore the use of this approach for building, four different repeat protein fusions to chain C were annealed in the same manner and all four 3-arm heterotrimers were successfully reconstituted. […] The successful reconstitution of these ABC assemblies, following the independent expression and purification of each chain and explicit mixing at a 1:1:1 ratio, enables their use in conjunction with other de novo proteins to mediate the specific assembly of multi-component assemblies. Independent expression also has considerable advantages over tricistronic expression from a gene synthesis perspective as DNA becomes much more difficult and expensive to synthesize with increasing construct size.
(§2) To test whether the DHT03 components could properly assemble in the presence of other helical hairpin containing chains, as would be the case for more complex assemblies, we chose DHD131, a designed helical hairpin unit heterodimer containing buried hydrogen bond networks¹². […] We evaluated simultaneous reconstitution of DHD131 and DHT03_3arm_A21/B21/C82, since the size difference between the two constructs (if correctly assembled) should be detected by SEC. We separately expressed and individually purified the two chains of the heterodimer and the three chains of the heterotrimer, mixed them at a 1:1:1:1:1 ratio, and carried out annealing and SEC as described above.

[3] = molecular target: T3, DHT03_3arm_A21/B21/C59 chain C; assay: as above
Source text: as §1, §2

[4] = molecular target: T4, DHT03_3arm_A21/B21/C82 chain C; assay: as above
Source text: as §1, §2

[5] = molecular target: T5, DHT03_3arm_A21/B21/C53 chain C; assay: as above
Source text: as §1, §2

[6] = molecular target: T6, DHT05 chain C (SEQ ID NO: 95); assay: SEC and SAXS; chains of one ABC heterotrimer
DHT01-4arm-01 chain C = molecular target: T7, DHT01-4arm-01 chain C; assay: SEC and SDS-PAGE; chains of one ABC heterotrimer
[7] = molecular target: T8, DHT05 chain C (SEQ ID NO: 89); assay: SEC and SAXS; chains of one ABC heterotrimer
[8] = molecular target: T9, DHT05_3arm_A62/B71/C62 chain C; assay: SEC and SAXS; chains of one ABC heterotrimer
[9] = molecular target: T10, DHT05_3arm_A62/B71/C62 chain B; assay: SEC and SAXS; chains of one ABC heterotrimer
DHT01 chain B = molecular target: T11, DHT01 chain B; assay: co-expression, IMAC and Strep-Tactin pull-down, SEC, native MS; chains of one ABC heterotrimer
Source text: (§3) We obtained genes encoding 20 coiled coil designed heterotrimers (DHTs) in a tricistronic E. coli expression vector with one chain having a 6×His-tag and a second chain having Strep-tag II, expressed the proteins, and purified by immobilized metal affinity chromatography (IMAC) and Strep-Tactin pull-down. All designs were soluble and for 6 designs, all three components were observed by liquid chromatography-mass spectrometry (LC-MS) after both pull-down approaches. Of these, 5 eluted as monodisperse peaks by SEC, but only 1 design (DHT01) was an exclusive ABC heterotrimer by native mass spectrometry (nMS) and had good agreement with the design model via small angle X-ray scattering (SAXS) (FIG. 2d, Table 7).
(§4) Samples were analyzed by online buffer exchange native mass spectrometry (nMS) to evaluate sample purity and accurately determine oligomeric states⁴². Multiple instruments were used as the analyses were carried out over the duration of the protein design process. The mass spectrometers used for detection were a Q Exactive™ UHMR modified with a surface-induced dissociation device and an Exactive™ Plus EMR modified with a selection quadrupole and a surface-induced dissociation device (Thermo Fisher Scientific)⁴³. The liquid chromatography systems used for the buffer exchange include a Vanquish™ Duo UHPLC and a Dionex™ Ultimate 3000 HPLC (Thermo Fisher Scientific). A heated electrospray ionization source (HESI-II, Thermo Fisher Scientific) with a spray voltage of ˜4 kV was used for ionization. Protein samples stored in Tris buffer were injected (0.1-2 ug) onto the LC system and exchanged at a flow rate of 100-200 uL*min⁻¹ into 200 mM ammonium acetate (mobile phase) prior to ionization. Buffer exchange columns used include self-packed columns with P6 polyacrylamide gel (Bio-Rad Laboratories) and prototype buffer exchange columns provided by Thermo Fisher Scientific (Sunnyvale, CA). Instrument parameters were optimized to allow for ion transmission while minimizing unintentional ion activation. […]

DHT01 chain C = molecular target: T12, DHT01 chain C; assay: as above
Source text: as §3, §4

[10] = molecular target: B5; assay: SEC and SAXS; chains of one ABC heterotrimer

Binder: B1
binding result [1]: binds

Binder: B2
binding result [2]: binds
binding result [3]: binds
binding result [4]: binds
binding result [5]: binds

Binder: B3
binding result [6]: binds

Binder: B4
binding result (DHT01-4arm-01 chain C): binds

Binder: B5
binding result [7]: binds

Binder: B6
binding result [8]: binds
binding result [9]: binds

Binder: B7
binding result (DHT01 chain B): binds
binding result (DHT01 chain C): binds

Binder: B8
binding result [10]: binds
